Measured values reported in the supplement of paper PMC9112550, “Optimization of the antimicrobial peptide Bac7 by deep mutational scanning” (BMC Biology, 2022).

Test system: Escherichia coli TOP10
Experiment: shrunken log2 fold change of peptide-encoding DNA abundance (4.5 h post-induction vs induction); higher = less antimicrobial activity (less host growth inhibition)
Conditions: time post-induction: 4.5 h; library: site-saturation at positions 5, 18, 19, 20
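Also: peptides expressed intracellularly from a pBAD plasmid library in pooled LB shake-flask culture, induced with 0.3% L-arabinose, DNA abundance read by NGS, three biological replicates, DESeq2 with apeglm shrinkage.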

Sequence | shrunken log2 fold change
RRIRGRPPRLPRPRPRPVELPRP | 0.354
RRIRYRPPRLPRPRPRPPEDPRP | -0.145
RRIRQRPPRLPRPRPRPNMQPRP | -0.619
RRIRCRPPRLPRPRPRPQIKPRP | -0.762
RRIRVRPPRLPRPRPRPNRNPRP | -0.238
RRIRVRPPRLPRPRPRPFNAPRP | -0.563
RRIRMRPPRLPRPRPRPCDLPRP | 0.041
RRIRGRPPRLPRPRPRPRVHPRP | 0.666
RRIRLRPPRLPRPRPRPEDAPRP | 0.368
RRIRRRPPRLPRPRPRPKHTPRP | 0.32
RRIRFRPPRLPRPRPRPFTEPRP | -0.869
RRIRSRPPRLPRPRPRPCEKPRP | -0.475
RRIRQRPPRLPRPRPRPLYKPRP | -1.34
RRIRSRPPRLPRPRPRPGMRPRP | 0.789
RRIRSRPPRLPRPRPRPSTNPRP | -0.546
RRIRFRPPRLPRPRPRPRVYPRP | -0.217
RRIRHRPPRLPRPRPRPNNMPRP | -0.674
RRIRFRPPRLPRPRPRPEQHPRP | 1.53
RRIRDRPPRLPRPRPRPYQHPRP | -0.221
RRIRKRPPRLPRPRPRPVKKPRP | 0.505
RRIRRRPPRLPRPRPRPFPVPRP | 0.271
RRIRDRPPRLPRPRPRPCFCPRP | -0.054
RRIRMRPPRLPRPRPRPAGQPRP | -0.00902
RRIRNRPPRLPRPRPRPAMRPRP | 0.842
RRIRGRPPRLPRPRPRPIGCPRP | 0.0147

Sequence | shrunken log2 fold change
RRIRSRPPRLPRPRPRPNHVPRP | -0.803
RRIRRRPPRLPRPRPRPQVRPRP | -0.0161
RRIRNRPPRLPRPRPRPQPTPRP | 0.0158
RRIRARPPRLPRPRPRPAHTPRP | 0.544
RRIRFRPPRLPRPRPRPLSWPRP | 0.245
RRIRYRPPRLPRPRPRPGCPPRP | -0.085
RRIRSRPPRLPRPRPRPKNFPRP | -0.053
RRIRERPPRLPRPRPRPDLFPRP | 0.462
RRIRIRPPRLPRPRPRPNFWPRP | -0.0359
RRIRYRPPRLPRPRPRPQAAPRP | -0.195
RRIRMRPPRLPRPRPRPDYSPRP | -0.0167
RRIRKRPPRLPRPRPRPYTDPRP | -0.0224
RRIRGRPPRLPRPRPRPWCEPRP | 0.0333
RRIRQRPPRLPRPRPRPSKDPRP | -0.462
RRIRMRPPRLPRPRPRPTHFPRP | 0.86
RRIRNRPPRLPRPRPRPDPHPRP | -0.263
RRIRARPPRLPRPRPRPGEQPRP | 0.135
RRIRKRPPRLPRPRPRPARYPRP | 0.513
RRIRFRPPRLPRPRPRPDNFPRP | -0.204
RRIRLRPPRLPRPRPRPAWYPRP | 0.0232
RRIRIRPPRLPRPRPRPKPEPRP | 0.0874
RRIRMRPPRLPRPRPRPKFKPRP | -0.0108
RRIRVRPPRLPRPRPRPWHYPRP | -0.647
RRIRSRPPRLPRPRPRPHGFPRP | -0.0309
RRIRLRPPRLPRPRPRPLPTPRP | 0.293

Sequence | shrunken log2 fold change
RRIRLRPPRLPRPRPRPHHFPRP | -0.128
RRIRVRPPRLPRPRPRPYQEPRP | 0.00202
RRIRERPPRLPRPRPRPSCYPRP | -0.941
RRIRWRPPRLPRPRPRPWDAPRP | 0.22
RRIRFRPPRLPRPRPRPICEPRP | -0.0168
RRIRDRPPRLPRPRPRPPEIPRP | 0.487
RRIRNRPPRLPRPRPRPNFVPRP | -0.317
RRIRWRPPRLPRPRPRPNWMPRP | -0.11
RRIRMRPPRLPRPRPRPEGMPRP | 2.24
RRIRMRPPRLPRPRPRPNRPPRP | -0.0884
RRIRHRPPRLPRPRPRPWKEPRP | -0.0223
RRIRLRPPRLPRPRPRPYHSPRP | -0.018
RRIRIRPPRLPRPRPRPTFKPRP | -0.102
RRIRHRPPRLPRPRPRPLFTPRP | -0.699
RRIRTRPPRLPRPRPRPGAKPRP | 0.524
RRIRIRPPRLPRPRPRPIHWPRP | -0.0782
RRIRSRPPRLPRPRPRPWMTPRP | -0.000334
RRIRNRPPRLPRPRPRPGRNPRP | -0.202
RRIRIRPPRLPRPRPRPRYHPRP | -1.12
RRIRWRPPRLPRPRPRPKRCPRP | 0.0577
RRIRQRPPRLPRPRPRPHHKPRP | -0.205
RRIRRRPPRLPRPRPRPCWYPRP | -0.112
RRIRWRPPRLPRPRPRPGPDPRP | 0.533
RRIRHRPPRLPRPRPRPMHIPRP | -1.93
RRIRQRPPRLPRPRPRPTMPPRP | 0.2

Sequence | shrunken log2 fold change
RRIRYRPPRLPRPRPRPILSPRP | -0.107
RRIRGRPPRLPRPRPRPPGWPRP | 1.04
RRIRLRPPRLPRPRPRPTNAPRP | 0.00567
RRIRARPPRLPRPRPRPFIVPRP | -0.286
RRIRARPPRLPRPRPRPKIMPRP | -0.0664
RRIRQRPPRLPRPRPRPPRLPRP | 0.287
RRIRKRPPRLPRPRPRPWWSPRP | -0.00415
RRIRARPPRLPRPRPRPDVGPRP | 0.0285
RRIRGRPPRLPRPRPRPFYGPRP | -0.0443
RRIRARPPRLPRPRPRPFSRPRP | -0.145
RRIRERPPRLPRPRPRPTINPRP | -0.399
RRIRDRPPRLPRPRPRPAREPRP | 1.06
RRIRMRPPRLPRPRPRPKYKPRP | -0.0345
RRIRQRPPRLPRPRPRPHQRPRP | 0.153
RRIRMRPPRLPRPRPRPACKPRP | 0.484
RRIRPRPPRLPRPRPRPQKKPRP | -0.113
RRIRTRPPRLPRPRPRPCKYPRP | -0.41
RRIRIRPPRLPRPRPRPVMRPRP | 0.144
RRIRPRPPRLPRPRPRPEILPRP | 0.0928
RRIRLRPPRLPRPRPRPGHVPRP | 0.0522
RRIRNRPPRLPRPRPRPTFDPRP | 0.0109
RRIRMRPPRLPRPRPRPFDMPRP | -0.192
RRIRWRPPRLPRPRPRPIVWPRP | -0.0161
RRIRVRPPRLPRPRPRPSTLPRP | -0.166
RRIRMRPPRLPRPRPRPTQDPRP | 1.24

Sequence | shrunken log2 fold change
RRIRERPPRLPRPRPRPIRPPRP | -0.0241
RRIRKRPPRLPRPRPRPDNLPRP | -0.0561
RRIRQRPPRLPRPRPRPGWPPRP | 0.514
RRIRERPPRLPRPRPRPHEGPRP | 0.127
RRIRTRPPRLPRPRPRPNNCPRP | -0.0675
RRIRTRPPRLPRPRPRPTHYPRP | 0.282
RRIRYRPPRLPRPRPRPQITPRP | -0.918
RRIRQRPPRLPRPRPRPWCPPRP | -0.261
RRIRCRPPRLPRPRPRPKCSPRP | 0.0495
RRIRARPPRLPRPRPRPCQHPRP | -0.274
RRIRQRPPRLPRPRPRPSRFPRP | 3.97
RRIRQRPPRLPRPRPRPCIEPRP | 0.015
RRIRKRPPRLPRPRPRPNGKPRP | -0.114
RRIRDRPPRLPRPRPRPKFNPRP | -0.236
RRIRMRPPRLPRPRPRPGVEPRP | 1.39
RRIRERPPRLPRPRPRPFQFPRP | -0.062
RRIRNRPPRLPRPRPRPDQIPRP | -0.0823
RRIRARPPRLPRPRPRPKAFPRP | 0.269
RRIRTRPPRLPRPRPRPGCCPRP | 0.334
RRIRPRPPRLPRPRPRPGWKPRP | 0.269
RRIRTRPPRLPRPRPRPLPVPRP | -0.103
RRIRMRPPRLPRPRPRPKNVPRP | -0.16
RRIRQRPPRLPRPRPRPCYEPRP | -0.0157
RRIRWRPPRLPRPRPRPSTPPRP | 0.0706
RRIRSRPPRLPRPRPRPYWRPRP | -0.21

Sequence | shrunken log2 fold change
RRIRMRPPRLPRPRPRPIAMPRP | 0.0028
RRIRCRPPRLPRPRPRPTAWPRP | 0.79
RRIRPRPPRLPRPRPRPNLTPRP | 0.0262
RRIRCRPPRLPRPRPRPTMCPRP | -0.755
RRIRVRPPRLPRPRPRPKWEPRP | 0.00343
RRIRCRPPRLPRPRPRPAVNPRP | -0.386
RRIRCRPPRLPRPRPRPITMPRP | -0.309
RRIRIRPPRLPRPRPRPVQKPRP | 0.0154
RRIRVRPPRLPRPRPRPCSGPRP | -0.0235
RRIRFRPPRLPRPRPRPPRFPRP | 0.454
RRIRERPPRLPRPRPRPQRRPRP | -0.0022
RRIRERPPRLPRPRPRPETLPRP | -0.0176
RRIRVRPPRLPRPRPRPDTNPRP | -0.479
RRIRPRPPRLPRPRPRPPPDPRP | 0.622
RRIRPRPPRLPRPRPRPIKKPRP | -0.00206
RRIRNRPPRLPRPRPRPFIVPRP | -0.279
RRIRLRPPRLPRPRPRPTKAPRP | 0.0258
RRIRHRPPRLPRPRPRPPWDPRP | 0.131
RRIRRRPPRLPRPRPRPWPTPRP | 0.0393
RRIRERPPRLPRPRPRPCGLPRP | -0.0273
RRIRGRPPRLPRPRPRPHMVPRP | -0.0598
RRIRFRPPRLPRPRPRPDLNPRP | -0.321
RRIRWRPPRLPRPRPRPIRTPRP | -0.228
RRIRFRPPRLPRPRPRPPPQPRP | 1.33
RRIRYRPPRLPRPRPRPEHYPRP | -0.126
